T1: Axl (Homo sapiens, UniProt P30530)
T1 sequence (P30530 26-451 limits assumed): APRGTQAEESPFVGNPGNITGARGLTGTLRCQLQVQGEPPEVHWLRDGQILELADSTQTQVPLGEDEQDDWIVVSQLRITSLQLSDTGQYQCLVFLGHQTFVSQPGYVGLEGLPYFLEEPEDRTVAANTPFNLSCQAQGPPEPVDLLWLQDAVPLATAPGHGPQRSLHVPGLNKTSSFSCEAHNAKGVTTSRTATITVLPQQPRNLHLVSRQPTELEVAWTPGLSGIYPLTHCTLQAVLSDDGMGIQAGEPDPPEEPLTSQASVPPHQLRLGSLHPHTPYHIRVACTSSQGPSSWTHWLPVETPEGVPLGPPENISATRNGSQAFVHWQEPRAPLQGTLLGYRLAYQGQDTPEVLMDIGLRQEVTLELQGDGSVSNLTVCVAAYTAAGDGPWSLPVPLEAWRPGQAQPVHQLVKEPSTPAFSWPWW


Experiments:
[1] = target: Axl (UniProt P30530); assay: ELISA, 1:3 dilution
[2] = target: Axl (UniProt P30530); assay: ELISA, 1:9 dilution
[3] = target: T1, Axl; assay: Affinity ELISA of CPE mutant antibodies for binding to Axl at pH 6.0 over pH 7.4; conditions: for Affinity ELISA CPE mutant ratio (1:3, pH 6.0/7.4): 1:3 dilution; for Affinity ELISA CPE mutant ratio (1:9, pH 6.0/7.4): 1:9 dilution
Text: The DNA encoding the wild-type antibody was evolved to generate a mutant antibody library using Comprehensive Positional Evolution (CPE), which each position in the template antibody is randomized one at a time. Each mutant antibody in the library has only one single point mutation. The mutant antibodies in the library were generated by simultaneously screening for selective binding affinity to Axl at pH 6.0 over pH 7.4 by ELISA. Two mutant antibody dilutions were used: 1:3 and 1:9 dilutions. The mutant antibodies that have at least 1.5 ratio of binding affinity at pH 6.0 to at pH 7.4 under either 1:3 or 1:9 dilution are selected as conditionally active antibodies, with the single point mutations indicated in each of the heavy chain and light chain variable region (Tables 1 and 2).
A wild-type antibody to Axl was selected as the template antibody (with a heavy chain variable region of 063-hum10F10-HC in FIG. 1A and a light chain variable region of […]). The DNA encoding the wild-type antibody was evolved to generate a mutant antibody library using Comprehensive Positional Evolution (CPE), a method by which each position in the template antibody is randomized one at a time. Each mutant antibody in the library has only one single point mutation. The mutant antibodies in the library were generated by simultaneously screening for selective binding affinity to Axl at pH 6.0 over pH 7.4 as determined by ELISA.
Simultaneously, the expression level of the mutant antibodies was also optimized for the purpose of higher fields in a manufacturing process. The screening was done in serum using a FLAG tag because there were human antibodies in the serum which might cause false positives for the screening. The screening buffer was a carbonate buffer (Krebs buffer with ringer-standard buffer but different from PBS). […] Some of the selected mutant antibodies (scFv) were represented in FIG. 2 with their higher activity at pH 6.0 than at pH 7.4, while their activity ratios between pH 6.0 to pH 7.4 were at least 11 fold (FIG. 3).

[4] = heavy chain variable region mutants
[5] = light chain variable region mutants

Molecule	Affinity ELISA CPE mutant ratio (1:3, pH 6.0/7.4) [1]	Affinity ELISA CPE mutant ratio (1:9, pH 6.0/7.4) [2]	Affinity ELISA CPE mutant ratio (1:3, pH 6.0/7.4) [3, 4]	Affinity ELISA CPE mutant ratio (1:9, pH 6.0/7.4) [3, 4]	Affinity ELISA CPE mutant ratio (1:3, pH 6.0/7.4) [3, 5]	Affinity ELISA CPE mutant ratio (1:9, pH 6.0/7.4) [3, 5]
HC-T030A (antibody, V domains shown) VH: EVQLVQSGAEVKKPGATVKISCKVSGYSFAGHTMNWIRQPPGKGLEWIGLIKPSNGGTSYNQKFKGRVTISADKSISTAYLQWSSLKASDTAMYYCAHGHYESYFAMDYWGQGTLVTVSS VL: DIQMTQSPSSLSASVGDRVTITCKASQDVSSAVAWYQQKPGQAPRLLIYWASTRHTGVPSRFSGSGSGTEFTLTISSLQPDDFATYYCQEHFSTPLTFGQGTKVEIK	1.29	1.76	1.292	1.762		
HC-W110H (antibody, V domains shown) VH: EVQLVQSGAEVKKPGATVKISCKVSGYSFTGHTMNWIRQPPGKGLEWIGLIKPSNGGTSYNQKFKGRVTISADKSISTAYLQWSSLKASDTAMYYCAHGHYESYFAMDYHGQGTLVTVSS VL: DIQMTQSPSSLSASVGDRVTITCKASQDVSSAVAWYQQKPGQAPRLLIYWASTRHTGVPSRFSGSGSGTEFTLTISSLQPDDFATYYCQEHFSTPLTFGQGTKVEIK	7.99	0.932	7.993	0.932		
LC-V029D (antibody, V domains shown) VH: EVQLVQSGAEVKKPGATVKISCKVSGYSFTGHTMNWIRQPPGKGLEWIGLIKPSNGGTSYNQKFKGRVTISADKSISTAYLQWSSLKASDTAMYYCAHGHYESYFAMDYWGQGTLVTVSS VL: DIQMTQSPSSLSASVGDRVTITCKASQDDSSAVAWYQQKPGQAPRLLIYWASTRHTGVPSRFSGSGSGTEFTLTISSLQPDDFATYYCQEHFSTPLTFGQGTKVEIK	2.88	2.68			2.882	2.679
LC-H091T (antibody, V domains shown) VH: EVQLVQSGAEVKKPGATVKISCKVSGYSFTGHTMNWIRQPPGKGLEWIGLIKPSNGGTSYNQKFKGRVTISADKSISTAYLQWSSLKASDTAMYYCAHGHYESYFAMDYWGQGTLVTVSS VL: DIQMTQSPSSLSASVGDRVTITCKASQDVSSAVAWYQQKPGQAPRLLIYWASTRHTGVPSRFSGSGSGTEFTLTISSLQPDDFATYYCQETFSTPLTFGQGTKVEIK	3.78	3.78			3.779	3.781
LC-H091Y (antibody, V domains shown) VH: EVQLVQSGAEVKKPGATVKISCKVSGYSFTGHTMNWIRQPPGKGLEWIGLIKPSNGGTSYNQKFKGRVTISADKSISTAYLQWSSLKASDTAMYYCAHGHYESYFAMDYWGQGTLVTVSS VL: DIQMTQSPSSLSASVGDRVTITCKASQDVSSAVAWYQQKPGQAPRLLIYWASTRHTGVPSRFSGSGSGTEFTLTISSLQPDDFATYYCQEYFSTPLTFGQGTKVEIK	3.93	5.13			3.931	5.126
LC-H091S (antibody, V domains shown) VH: EVQLVQSGAEVKKPGATVKISCKVSGYSFTGHTMNWIRQPPGKGLEWIGLIKPSNGGTSYNQKFKGRVTISADKSISTAYLQWSSLKASDTAMYYCAHGHYESYFAMDYWGQGTLVTVSS VL: DIQMTQSPSSLSASVGDRVTITCKASQDVSSAVAWYQQKPGQAPRLLIYWASTRHTGVPSRFSGSGSGTEFTLTISSLQPDDFATYYCQESFSTPLTFGQGTKVEIK	1.76	1.34			1.758	1.336
LC-V029G (antibody, V domains shown) VH: EVQLVQSGAEVKKPGATVKISCKVSGYSFTGHTMNWIRQPPGKGLEWIGLIKPSNGGTSYNQKFKGRVTISADKSISTAYLQWSSLKASDTAMYYCAHGHYESYFAMDYWGQGTLVTVSS VL: DIQMTQSPSSLSASVGDRVTITCKASQDGSSAVAWYQQKPGQAPRLLIYWASTRHTGVPSRFSGSGSGTEFTLTISSLQPDDFATYYCQEHFSTPLTFGQGTKVEIK	1.94	1.8			1.939	1.803
LC-A032L (antibody, V domains shown) VH: EVQLVQSGAEVKKPGATVKISCKVSGYSFTGHTMNWIRQPPGKGLEWIGLIKPSNGGTSYNQKFKGRVTISADKSISTAYLQWSSLKASDTAMYYCAHGHYESYFAMDYWGQGTLVTVSS VL: DIQMTQSPSSLSASVGDRVTITCKASQDVSSLVAWYQQKPGQAPRLLIYWASTRHTGVPSRFSGSGSGTEFTLTISSLQPDDFATYYCQEHFSTPLTFGQGTKVEIK	1.98	2.27			1.982	2.272
HC-N035I (antibody, V domains shown) VH: EVQLVQSGAEVKKPGATVKISCKVSGYSFTGHTMIWIRQPPGKGLEWIGLIKPSNGGTSYNQKFKGRVTISADKSISTAYLQWSSLKASDTAMYYCAHGHYESYFAMDYWGQGTLVTVSS VL: DIQMTQSPSSLSASVGDRVTITCKASQDVSSAVAWYQQKPGQAPRLLIYWASTRHTGVPSRFSGSGSGTEFTLTISSLQPDDFATYYCQEHFSTPLTFGQGTKVEIK	2.81	1.12	2.814	1.121		
LC-V029N (antibody, V domains shown) VH: EVQLVQSGAEVKKPGATVKISCKVSGYSFTGHTMNWIRQPPGKGLEWIGLIKPSNGGTSYNQKFKGRVTISADKSISTAYLQWSSLKASDTAMYYCAHGHYESYFAMDYWGQGTLVTVSS VL: DIQMTQSPSSLSASVGDRVTITCKASQDNSSAVAWYQQKPGQAPRLLIYWASTRHTGVPSRFSGSGSGTEFTLTISSLQPDDFATYYCQEHFSTPLTFGQGTKVEIK	2.6	2.65			2.595	2.652
LC-H091V (antibody, V domains shown) VH: EVQLVQSGAEVKKPGATVKISCKVSGYSFTGHTMNWIRQPPGKGLEWIGLIKPSNGGTSYNQKFKGRVTISADKSISTAYLQWSSLKASDTAMYYCAHGHYESYFAMDYWGQGTLVTVSS VL: DIQMTQSPSSLSASVGDRVTITCKASQDVSSAVAWYQQKPGQAPRLLIYWASTRHTGVPSRFSGSGSGTEFTLTISSLQPDDFATYYCQEVFSTPLTFGQGTKVEIK	4.13	1.17			4.133	1.171
LC-V029W (antibody, V domains shown) VH: EVQLVQSGAEVKKPGATVKISCKVSGYSFTGHTMNWIRQPPGKGLEWIGLIKPSNGGTSYNQKFKGRVTISADKSISTAYLQWSSLKASDTAMYYCAHGHYESYFAMDYWGQGTLVTVSS VL: DIQMTQSPSSLSASVGDRVTITCKASQDWSSAVAWYQQKPGQAPRLLIYWASTRHTGVPSRFSGSGSGTEFTLTISSLQPDDFATYYCQEHFSTPLTFGQGTKVEIK	2.31	2.35			2.310	2.353
HC-E102N (antibody, V domains shown) VH: EVQLVQSGAEVKKPGATVKISCKVSGYSFTGHTMNWIRQPPGKGLEWIGLIKPSNGGTSYNQKFKGRVTISADKSISTAYLQWSSLKASDTAMYYCAHGHYNSYFAMDYWGQGTLVTVSS VL: DIQMTQSPSSLSASVGDRVTITCKASQDVSSAVAWYQQKPGQAPRLLIYWASTRHTGVPSRFSGSGSGTEFTLTISSLQPDDFATYYCQEHFSTPLTFGQGTKVEIK	1.52	1.57	1.520	1.567		

Source: patent US20250276075A1, “METHODS OF TREATING AXL-EXPRESSING CANCERS WITH ANTI-AXL ANTIBODIES, ANTIBODY FRAGMENTS AND THEIR IMMUNOCONJUGATES” (BIOATLA, INC., priority 2020, published 2025)
